# US20140274782A1, “AFFINITY REAGENTS AND METHODS FOR DETECTION, PURIFICATION, AND PROTEOMIC ANALYSIS OF METHYLATED PROTEINS” (The Board of Trustees of the Leland Stanford Junior …, priority 2013, published 2014)
# T1: G9a and GLP (Homo sapiens, UniProt Q96KQ7+Q9H9B1)
# T1 sequence (Q96KQ7 2-1210 limits assumed): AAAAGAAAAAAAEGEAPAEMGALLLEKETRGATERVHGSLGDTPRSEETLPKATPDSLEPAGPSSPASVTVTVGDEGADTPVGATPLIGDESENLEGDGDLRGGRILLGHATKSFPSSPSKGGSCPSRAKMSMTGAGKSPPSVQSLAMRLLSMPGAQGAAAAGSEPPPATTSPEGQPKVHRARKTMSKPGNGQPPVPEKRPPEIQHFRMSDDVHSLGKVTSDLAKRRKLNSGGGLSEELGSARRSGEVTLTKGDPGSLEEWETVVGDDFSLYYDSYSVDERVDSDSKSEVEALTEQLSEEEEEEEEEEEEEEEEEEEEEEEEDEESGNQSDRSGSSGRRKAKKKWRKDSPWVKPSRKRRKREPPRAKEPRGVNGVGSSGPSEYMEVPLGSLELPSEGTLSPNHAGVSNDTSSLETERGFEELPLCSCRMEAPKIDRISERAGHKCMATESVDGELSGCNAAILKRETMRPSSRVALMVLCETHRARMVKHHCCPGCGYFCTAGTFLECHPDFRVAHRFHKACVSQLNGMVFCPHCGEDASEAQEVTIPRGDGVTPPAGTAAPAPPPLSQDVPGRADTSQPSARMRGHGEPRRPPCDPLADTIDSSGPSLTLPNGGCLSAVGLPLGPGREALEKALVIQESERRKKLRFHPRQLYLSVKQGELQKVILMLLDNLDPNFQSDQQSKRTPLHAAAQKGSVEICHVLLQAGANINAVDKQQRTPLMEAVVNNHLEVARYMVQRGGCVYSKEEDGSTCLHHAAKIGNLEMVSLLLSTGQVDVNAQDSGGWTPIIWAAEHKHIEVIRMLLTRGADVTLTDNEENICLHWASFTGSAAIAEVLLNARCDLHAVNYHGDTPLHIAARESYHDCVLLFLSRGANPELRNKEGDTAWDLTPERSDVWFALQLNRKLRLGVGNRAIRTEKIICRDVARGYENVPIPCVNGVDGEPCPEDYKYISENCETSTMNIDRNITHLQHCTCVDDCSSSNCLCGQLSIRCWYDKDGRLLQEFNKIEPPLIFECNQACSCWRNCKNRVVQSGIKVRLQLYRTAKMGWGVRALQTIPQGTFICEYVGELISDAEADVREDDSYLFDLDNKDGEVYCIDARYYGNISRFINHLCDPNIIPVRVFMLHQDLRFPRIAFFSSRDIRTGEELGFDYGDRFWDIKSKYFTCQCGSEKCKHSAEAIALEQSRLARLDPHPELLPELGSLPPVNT
# T1 sequence (Q9H9B1 2-1298 limits assumed): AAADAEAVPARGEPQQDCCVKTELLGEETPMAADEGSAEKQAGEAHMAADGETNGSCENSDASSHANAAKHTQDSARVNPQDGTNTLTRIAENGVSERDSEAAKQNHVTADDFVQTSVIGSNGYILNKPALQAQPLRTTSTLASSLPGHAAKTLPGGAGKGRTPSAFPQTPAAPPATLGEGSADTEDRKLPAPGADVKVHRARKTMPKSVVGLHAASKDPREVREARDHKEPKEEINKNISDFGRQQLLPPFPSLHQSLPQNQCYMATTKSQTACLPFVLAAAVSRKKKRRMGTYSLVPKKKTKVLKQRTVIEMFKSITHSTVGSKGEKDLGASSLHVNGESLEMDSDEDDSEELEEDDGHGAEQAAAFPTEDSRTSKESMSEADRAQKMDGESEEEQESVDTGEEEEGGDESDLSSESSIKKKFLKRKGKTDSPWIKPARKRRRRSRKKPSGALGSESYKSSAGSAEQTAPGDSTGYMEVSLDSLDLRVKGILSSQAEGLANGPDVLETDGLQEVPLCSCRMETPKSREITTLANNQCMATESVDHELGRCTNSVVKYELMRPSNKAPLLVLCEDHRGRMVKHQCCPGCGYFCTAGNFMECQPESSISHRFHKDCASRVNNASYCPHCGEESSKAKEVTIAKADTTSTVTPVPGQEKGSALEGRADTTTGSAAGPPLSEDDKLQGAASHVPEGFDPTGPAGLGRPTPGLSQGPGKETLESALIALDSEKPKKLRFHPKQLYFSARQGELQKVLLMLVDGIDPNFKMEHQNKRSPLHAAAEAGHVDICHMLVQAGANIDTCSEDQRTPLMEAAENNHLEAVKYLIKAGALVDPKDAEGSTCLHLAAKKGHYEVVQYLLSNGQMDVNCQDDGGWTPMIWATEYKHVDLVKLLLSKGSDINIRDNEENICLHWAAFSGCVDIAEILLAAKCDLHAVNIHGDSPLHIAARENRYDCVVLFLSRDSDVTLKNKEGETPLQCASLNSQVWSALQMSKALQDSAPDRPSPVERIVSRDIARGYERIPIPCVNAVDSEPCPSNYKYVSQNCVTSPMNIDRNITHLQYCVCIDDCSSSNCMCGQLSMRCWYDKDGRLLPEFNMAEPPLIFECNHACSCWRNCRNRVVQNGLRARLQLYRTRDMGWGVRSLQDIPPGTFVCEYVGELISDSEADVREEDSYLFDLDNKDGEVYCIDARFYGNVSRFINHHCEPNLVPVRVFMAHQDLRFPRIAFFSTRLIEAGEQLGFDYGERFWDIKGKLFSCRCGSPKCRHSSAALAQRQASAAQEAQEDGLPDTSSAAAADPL
# B1: PRPF19 (protein, UniProt Q9UMS4 2-504, looked up)
# Pre-mRNA-processing factor 19: SLICSISNEVPEHPCVSPVSNHVYERRLIEKYIAENGTDPINNQPLSEEQLIDIKVAHPIRPKPPSATSIPAILKALQDEWDAVMLHSFTLRQQLQTTRQELSHALYQHDAACRVIARLTKEVTAAREALATLKPQAGLIVPQAVPSSQPSVVGAGEPMDLGELVGMTPEIIQKLQDKATVLTTERKKRGKTVPEELVKPEELSKYRQVASHVGLHSASIPGILALDLCPSDTNKILTGGADKNVVVFDKSSEQILATLKGHTKKVTSVVFHPSQDLVFSASPDATIRIWSVPNASCVQVVRAHESAVTGLSLHATGDYLLSSSDDQYWAFSDIQTGRVLTKVTDETSGCSLTCAQFHPDGLIFGTGTMDSQIKIWDLKERTNVANFPGHSGPITSIAFSENGYYLATAADDSSVKLWDLRKLKNFKTLQLDNNFEVKSLIFDQSGTYLALGGTDVQIYICKQWTEILHFTEHSGLTTGVAFGHHAKFIASTGMDRSLKFYSL
# B2: CSDE1 (protein, UniProt O75534 1-798, looked up)
# Cold shock domain-containing …: MSFDPNLLHNNGHNGYPNGTSAALRETGVIEKLLTSYGFIQCSERQARLFFHCSQYNGNLQDLKVGDDVEFEVSSDRRTGKPIAVKLVKIKQEILPEERMNGQVVCAVPHNLESKSPAAPGQSPTGSVCYERNGEVFYLTYTPEDVEGNVQLETGDKINFVIDNNKHTGAVSARNIMLLKKKQARCQGVVCAMKEAFGFIERGDVVKEIFFHYSEFKGDLETLQPGDDVEFTIKDRNGKEVATDVRLLPQGTVIFEDISIEHFEGTVTKVIPKVPSKNQNDPLPGRIKVDFVIPKELPFGDKDTKSKVTLLEGDHVRFNISTDRRDKLERATNIEVLSNTFQFTNEAREMGVIAAMRDGFGFIKCVDRDVRMFFHFSEILDGNQLHIADEVEFTVVPDMLSAQRNHAIRIKKLPKGTVSFHSHSDHRFLGTVEKEATFSNPKTTSPNKGKEKEAEDGIIAYDDCGVKLTIAFQAKDVEGSTSPQIGDKVEFSISDKQRPGQQVATCVRLLGRNSNSKRLLGYVATLKDNFGFIETANHDKEIFFHYSEFSGDVDSLELGDMVEYSLSKGKGNKVSAEKVNKTHSVNGITEEADPTIYSGKVIRPLRSVDPTQTEYQGMIEIVEEGDMKGEVYPFGIVGMANKGDCLQKGESVKFQLCVLGQNAQTMAYNITPLRRATVECVKDQFGFINYEVGDSKKLFFHVKEVQDGIELQAGDEVEFSVILNQRTGKCSACNVWRVCEGPKAVAAPRPDRLVNRLKNITLDDASAPRLMVLRQPRGPDNSMGFGAERKIRQAGVID
# B3: PRPF38B (protein, UniProt Q5VTL8 2-546, looked up)
# Pre-mRNA-splicing factor 38B: ANNSPALTGNSQPQHQAAAAAAQQQQQCGGGGATKPAVSGKQGNVLPLWGNEKTMNLNPMILTNILSSPYFKVQLYELKTYHEVVDEIYFKVTHVEPWEKGSRKTAGQTGMCGGVRGVGTGGIVSTAFCLLYKLFTLKLTRKQVMGLITHTDSPYIRALGFMYIRYTQPPTDLWDWFESFLDDEEDLDVKAGGGCVMTIGEMLRSFLTKLEWFSTLFPRIPVPVQKNIDQQIKTRPRKIKKDGKEGAEEIDRHVERRRSRSPRRSLSPRRSPRRSRSRSHHREGHGSSSFDRELEREKERQRLEREAKEREKERRRSRSIDRGLERRRSRSRERHRSRSRSRDRKGDRRDRDREREKENERGRRRDRDYDKERGNEREKERERSRERSKEQRSRGEVEEKKHKEDKDDRRHRDDKRDSKKEKKHSRSRSRERKHRSRSRSRNAGKRSRSRSKEKSSKHKNESKEKSNKRSRSGSQGRTDSVEKSKKREHSPSKEKSRKRSRSKERSHKRDHSDSKDQSDKHDRRRSQSIEQESQEKQHKNKDETV
# B4: RBM14 (protein, UniProt Q96PK6 1-669, looked up)
# RNA-binding protein 14: MKIFVGNVDGADTTPEELAALFAPYGTVMSCAVMKQFAFVHMRENAGALRAIEALHGHELRPGRALVVEMSRPRPLNTWKIFVGNVSAACTSQELRSLFERRGRVIECDVVKDYAFVHMEKEADAKAAIAQLNGKEVKGKRINVELSTKGQKKGPGLAVQSGDKTKKPGAGDTAFPGTGGFSATFDYQQAFGNSTGGFDGQARQPTPPFFGRDRSPLRRSPPRASYVAPLTAQPATYRAQPSVSLGAAYRAQPSASLGVGYRTQPMTAQAASYRAQPSVSLGAPYRGQLASPSSQSAAASSLGPYGGAQPSASALSSYGGQAAAASSLNSYGAQGSSLASYGNQPSSYGAQAASSYGVRAAASSYNTQGAASSLGSYGAQAASYGAQSAASSLAYGAQAASYNAQPSASYNAQSAPYAAQQAASYSSQPAAYVAQPATAAAYASQPAAYAAQATTPMAGSYGAQPVVQTQLNSYGAQASMGLSGSYGAQSAAAATGSYGAAAAYGAQPSATLAAPYRTQSSASLAASYAAQQHPQAAASYRGQPGNAYDGAGQPSAAYLSMSQGAVANANSTPPPYERTRLSPPRASYDDPYKKAVAMSKRYGSDRRLAELSDYRRLSESQLSFRRSPTKSSLDYRRLPDAHSDYARYSGSYNDYLRAAQMHSGYQRRM
# B5: CBR1 (protein, UniProt P16152 2-277, looked up)
# Carbonyl reductase [NADPH] 1: SSGIHVALVTGGNKGIGLAIVRDLCRLFSGDVVLTARDVTRGQAAVQQLQAEGLSPRFHQLDIDDLQSIRALRDFLRKEYGGLDVLVNNAGIAFKVADPTPFHIQAEVTMKTNFFGTRDVCTELLPLIKPQGRVVNVSSIMSVRALKSCSPELQQKFRSETITEEELVGLMNKFVEDTKKGVHQKEGWPSSAYGVTKIGVTVLSRIHARKLSEQRKGDKILLNACCPGWVRTDMAGPKATKSPEEGAETPVYLALLPPDAEGPHGQFVSEKRVEQW
# Target: T1, G9a and GLP
# Experiment: Triple SILAC pull-down after UNC0638 treatment of 293T cells, DMSO/UNC0638 ratio of protein captured by 3×MBT;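 further: mass spectrometry (Q-Exactive) SILAC quantitation, DMSO/UNC0638 ratio computed after subtracting 3×MBTD355N mutant pull-down background, only proteins with at least twofold 3×MBT over mutant signal considered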
# Format: cell-based
# Set-up: endogenous in cells; host or cells: HEK 293T
# Details: SILAC ratio DMSO/UNC0638 of protein pulled down with 3xMBT; UNC0638 in heavy SILAC media
row,Molecule,Relative to UNC0638 UNC Heavy [log base 2]
1,B1,0.39
2,B2,0.16
3,B3,−0.03
4,B4,0.06
5,B5,−0.09

# Same assay, conditions: SILAC ratio DMSO/UNC0638 of protein pulled down with 3xMBT; UNC0638 in light SILAC media
row,Molecule,Relative to UNC0638 UNC Light [log base 2]
1,B1,−0.15
2,B2,0.08
3,B3,0.26
4,B4,0.17
5,B5,1.14

# Same assay, conditions: average of UNC Light and UNC Heavy experiments
row,Molecule,Relative to UNC0638 Average [log base 2]
1,B1,0.12
2,B2,0.12
3,B3,0.12
4,B4,0.11
5,B5,0.53

# System: 3×MBT domain of L3MBTL1
# Experiment: Triple SILAC pull-down, 3xMBT/3xMBTD355N ratio (cytoplasmic, nuclear and chromatin fractions of 293T cells);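 further: proteins quantified with MaxQuant, requiring at least two unique peptides and quantification in both label directions, normalized to the mean of proteins from a digested loading control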
# Format: binding, human
# Details: SILAC ratio, pull-down 3xMBT vs 3xMBTD355N; experiment with UNC0638 in heavy SILAC media
row,Molecule,3xMBT/D355N UNC Heavy [log base 2]
1,B1,2.05
2,B2,2.33
3,B3,2.44
4,B4,0.82
5,B5,1.12

# Same assay, conditions: SILAC ratio, pull-down 3xMBT vs 3xMBTD355N; experiment with UNC0638 in light SILAC media
row,Molecule,3xMBT/D355N UNC Light [log base 2]
1,B1,1.97
2,B2,2.17
3,B3,2.96
4,B4,1.89
5,B5,0.84
